Results on two molecules are retold here after patent US20200317768A1 (published 2020).

Common to all, as to assay: SPR (Biacore), antibody captured, FcgR analyte, 25 C
Assay [1] has as its target T1, cynomolgus monkey FcγRIIa1 extracellular domain, C-terminal His-tag (cynomolgus monkey).
T1 construct: also called cyno FcγRIIa1; cynoFcgRIIa1; not shown: His-tag added to C-terminus
T1 chain: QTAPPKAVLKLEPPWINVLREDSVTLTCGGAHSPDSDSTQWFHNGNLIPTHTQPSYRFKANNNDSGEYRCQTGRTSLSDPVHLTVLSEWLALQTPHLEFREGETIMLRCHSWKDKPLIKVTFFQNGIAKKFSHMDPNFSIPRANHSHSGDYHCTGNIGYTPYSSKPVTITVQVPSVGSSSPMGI

The target in assay [2] is T2, cynomolgus monkey FcγRIIa2 extracellular domain, C-terminal His-tag (cynomolgus monkey).
T2 construct: also called cyno FcγRIIa2; cynoFcgRIIa2; not shown: His-tag added to C-terminus
T2 chain: T1 chain with P95T, T121A, I127K, A128S, K130N, D135N, R142Q

In assay [3] the target is T3, cynomolgus monkey FcγRIIa3 extracellular domain, C-terminal His-tag (cynomolgus monkey).
T3 construct: also called cyno FcγRIIa3; cynoFcgRIIa3; not shown: His-tag added to C-terminus
T3 chain: T1 chain with P95T, T121A, A128S, H133P, D135N

Assay [4] has as its target T4, cynomolgus monkey FcγRIIb extracellular domain, C-terminal His-tag (cynomolgus monkey).
T4 construct: also called cyno FcγRIIb; cynoFcγRIIb; not shown: His-tag added to C-terminus
T4 chain: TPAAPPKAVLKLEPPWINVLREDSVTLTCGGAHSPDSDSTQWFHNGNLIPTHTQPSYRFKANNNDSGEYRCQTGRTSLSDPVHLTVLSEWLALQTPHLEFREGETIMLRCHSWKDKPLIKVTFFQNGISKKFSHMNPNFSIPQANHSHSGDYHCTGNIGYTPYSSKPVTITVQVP

Assay [5] addresses T5, cynomolgus monkey FcγRIIIaS extracellular domain, C-terminal His-tag (cynomolgus monkey, UniProt A3RFZ7 21-206 (rhesus entry)).
T5 construct: also called cyno FcγRIIIaS; cynoFcγRIIIaS; not shown: His-tag added to C-terminus

The target of assay [6] is T6, human FcγRIIaH extracellular domain, C-terminal His-tag (human, UniProt P12318 34-217).
T6 construct: also called human FcγRIIa (type H); FcgRIIaH; not shown: His-tag added to C-terminus
T6 sequence: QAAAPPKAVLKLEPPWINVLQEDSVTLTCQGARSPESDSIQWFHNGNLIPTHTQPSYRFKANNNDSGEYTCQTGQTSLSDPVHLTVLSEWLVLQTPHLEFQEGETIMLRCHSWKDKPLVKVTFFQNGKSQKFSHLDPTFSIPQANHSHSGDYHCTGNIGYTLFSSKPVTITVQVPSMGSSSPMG

In assay [7] the target is T7, human FcγRIIaR extracellular domain, C-terminal His-tag (human, UniProt P12318 34-217).
T7 construct: also called human FcγRIIa (type R); FcgRIIaR; not shown: His-tag added to C-terminus
T7 chain: T6 sequence with H134R

The target of assay [8] is T8, human FcγRIIb extracellular domain, C-terminal His-tag (human, UniProt P31994 43-217).
T8 construct: also called FcgRIIb (human); not shown: His-tag added to C-terminus
T8 sequence: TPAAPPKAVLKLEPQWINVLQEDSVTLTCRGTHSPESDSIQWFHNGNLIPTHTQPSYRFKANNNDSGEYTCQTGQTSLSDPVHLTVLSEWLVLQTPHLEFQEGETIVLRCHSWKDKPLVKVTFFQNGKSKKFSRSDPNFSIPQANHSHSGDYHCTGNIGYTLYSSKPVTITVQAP

Usually Kd stands for a measure of binding affinity in units of concentration.

Where a chain is given by its changes, count along the chain named.

T5 sequence (A3RFZ7 21-206): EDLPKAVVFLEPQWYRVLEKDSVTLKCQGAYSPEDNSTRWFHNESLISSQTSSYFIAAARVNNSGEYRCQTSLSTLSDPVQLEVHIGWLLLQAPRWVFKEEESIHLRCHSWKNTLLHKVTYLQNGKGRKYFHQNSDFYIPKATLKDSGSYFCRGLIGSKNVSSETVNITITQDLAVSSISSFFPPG

B1: M103205H795-MY318/M103202L889-SK1 (antibody, human IgG1, kappa)
heavy: QVTLKESGPVLVKPTETLTLTCTVSGIDLSHDDISWVRQAPGKGLEWVGIISYAGSTYYASWAKGRLTISKDTSKNQVVLTMTNMDPVDTATYYCARGVPAYSHGGDLWGQGTLVTVSSASTKGPSVFPLAPSSKSTSGGTAALGCLVKDYFPEPVTVSWNSGALTSGVHTFPAVLQSSGLYSLSSVVTVPSSSLGTQTYICNVNHKPSNTKVDKKVEPKSCDKTHTCPPCPAPELLLGPSVFLFPPKPKDTLMISRTPEVTCVVVDVSEEDPEVKFNWYVDGVEVHNAKTKPREEQYNSTYRVVSVLTVLHQDWLNGKEYKCKVSNTALPKPIEKTISKAKGQPREPQVYTLPPSREEMTKNQVSLTCLVKGFYPSDIAVEWESNGQPENNYKTTPMVLDSDGSFFLYSKLTVDKSRWQQGNVFSCSVMHEALHNHYTQKSLSLSP
light: DIVMTQSPATLSLSPGERATLSCTSSQSVYHANWLSWFQQKPGQPPKLLIYWASTLAYGVPSRFSGSGSGTDFTLTISSLQPEDAATYYCAGGYGGGRYAFGQGTKVEIKRTVAAPSVFIFPPSDEQLKSGTASVVCLLNNFYPREAKVQWKVDNALQSGNSQESVTEQDSKDSTYSLSSTLTLSKADYEKHKVYACEVTHQGLSSPVTKSFNRGEC
Turning to B1, the Kd came to 7.9 µM in assay [1]; 7.7 µM in assay [2]; 32 µM in assay [3]; 2200 nM in assay [4]; 1.5 µM in assay [5]; 1100 nM in assay [6]. The figures for the Kd in assay [7] and in assay [8] were 1300 nM and 4.8 µM, respectively.

B2: M103205H795-MY321/M103202L889-SK1 (antibody, human IgG1, kappa)
heavy: B1 heavy with L238H, E270D, T328K
light: B1 light
For the molecule B2, the Kd in assay [1] was found to be 2.3 µM; in assay [2], 2.2 µM; in assay [3] it was 2.9 µM; in assay [4], 540 nM; in assay [5], 11 µM; in assay [6], 71 nM. Further, the dissociation constant (Kd) in assay [7] turned out to be 350 nM; in assay [8] it was 2.6 µM.
